The source of these data is patent publication US6057104.

For assay [1], the target named is MmRad51, full length, fused to the GAL4 DNA-binding domain (the "bait") (mouse). Nature of the assay: yeast two-hybrid in HF7c cells, full length MmRad51 bait, X-gal staining.
Assay [2] has the same target. Nature of the assay: yeast two-hybrid in HF7c cells, full length MmRad51 bait; relative to full length MmRad51 prey as 100%.
The target is the same in assay [3]. Nature of the assay: yeast two-hybrid in HF7c cells, full length MmRad51 bait; relative to the positive control.
Assay [4] shares this target. Nature of the assay: yeast two-hybrid in HF7c cells, full length MmRad51 bait; the reference of the scale.
For assay [5], the target named is mammalian Rad51 (MmRad51), wild-type protein of the cells (mouse).
Assay [6] deals with MmRad51, full length, fused to the GAL4 DNA-binding domain (the "bait") (mouse). Nature of the assay: yeast two-hybrid against full length MmRad51.

In assay [1], “MmRad51 deletion TR1-43, as two-hybrid prey” came in with a time until yeast cells stained blue of under 5 min. The substance also came in with a relative β-galactosidase activity in assay [2] of 43%.

Consider “MmRad51 deletion TR1-93, as two-hybrid prey”, for which the time until yeast cells stained blue in assay [1] worked out at 30 min. For the same substance, the relative β-galactosidase activity in assay [2] amounted to 4%.

As for “MmRad51 deletion TR1-131, as two-hybrid prey”, in assay [3], the relative β-galactosidase activity amounted to 11%.

Take “MmRad51 deletion TR1-175, as two-hybrid prey”: in assay [3], the relative β-galactosidase activity is 9%.

Substance “MmRad51 deletion TR43-339, as two-hybrid prey” yielded a relative β-galactosidase activity in assay [2] of 1.

In the case of “MmRad51 deletion TR131-339, as two-hybrid prey”, the relative β-galactosidase activity in assay [2] amounted to 1.

On to “MmRad51, full length, as two-hybrid prey”, for which, in assay [4], the relative β-galactosidase activity turned out to be 100%.

For the substance “altered Rad51 product encoded by rad51K-A134, expressed in ES cells”, the relative targeting frequency (TG^r +G418^r /G418^r colonies) at HPRT in ES cells, IVH-tk as 100% in assay [5] came out at 54%.

In turn, “rad51K-A134 product, as tested in the yeast two-hybrid system” came in with a relative β-galactosidase activity in assay [6] of 90%.
